Usually Kd stands for the equilibrium constant for the complex coming apart. A low value points to a tighter complex.

The target of test [1] is T1, Rab6B^Q72L, GTPase domain (residues 8-176), constitutively active mutant (mouse, UniProt P61294 8-176, Q72L).
T1 construct: Rab6B, mouse, GenBank NM_173781.4, GTPase domain residues 8-176, with Q72L; Used in analytical gel filtration and ITC; The methods tell of tag cleavage (HRV 3C) only for crystallization, so the Trx-His6 tag was probably still on; also called continuously active mutant Rab6B^Q72L; active form of Rab6B; source: E. coli BL21(DE3), purified (Ni2+-NTA, size-exclusion chromatography)
Kind of test: SEC; analytical gel filtration, Superdex 200 Increase 10/300 GL, 50 mM Tris pH 7.5, 100 mM NaCl, 2 mM MgCl2, 1 mM DTT. As to conditions: both partners purified. In general terms: In gel filtration, larger molecules generally elute earlier.

For test [2], the target named is T1, Rab6B^Q72L, GTPase domain (residues …). Kind of test: ITC; MicroCal PEAQ-ITC, 25 °C, 50 mM Tris pH 7.5, 100 mM NaCl, 2 mM MgCl2; typically one protein (400 μM) in the syringe into its binding protein (40 μM) in the cell. As to conditions: both partners purified. (Isothermal titration calorimetry measures the heat released or taken up as one component is titrated into another.)

T1 sequence (P61294 8-176 Q72L): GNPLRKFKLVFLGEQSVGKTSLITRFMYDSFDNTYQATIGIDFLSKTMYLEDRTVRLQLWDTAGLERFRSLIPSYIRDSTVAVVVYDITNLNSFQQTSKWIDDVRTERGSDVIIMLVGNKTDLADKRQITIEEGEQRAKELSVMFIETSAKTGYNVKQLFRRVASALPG

B1: ELKS1 C-terminal coiled-coil region (residues 761-927) (domain or fragment, rat, UniProt Q811U3 761-927, looked up)
chain: QVKDQNKKVANLKHKEQVEKKKSAQMLEEARRREDSLSDSSQQLQVEELLMAMEKVKQELESMKAKLSSTQQSLAEKETHLTNLRAERRKHLEEVLEMKQEALLAAISEKDANIALLELSSSKKKTQEEVAALKREKDRLVQQLKQQTQNRMKLMADNYEDDHFRSS
notes: ELKS1 (Rab6IP2, CAST, ERC), rat, GenBank AY174115.1, residues 761-927; also called C-terminal fragment of ELKS1; source: E. coli BL21(DE3), purified (Ni2+-NTA, size-exclusion chromatography)
For the molecule B1, the binding result in test [1] is “binds”.

B2: ELKS1_RBD, Rab-binding domain of ELKS1 (residues 849-922) (domain or fragment, rat, UniProt Q811U3 849-922, looked up)
chain: RKHLEEVLEMKQEALLAAISEKDANIALLELSSSKKKTQEEVAALKREKDRLVQQLKQQTQNRMKLMADNYEDD
notes: As used in analytical gel filtration and ITC; source: E. coli BL21(DE3), purified (Ni2+-NTA, size-exclusion chromatography)
Regarding B2, in test [2], the Kd is about 8 µM.
